In article PMC9468648, “Profiling of transcriptional regulators associated with starch biosynthesis in sorghum (Sorghum bicolor L.)”:

Legend:
Experiment in all cases: EMSA; Chemiluminescent EMSA Kit (Beyotime) per manufacturer's instructions; buffer, salt, pH and temperature not stated
Details in all cases: protein: recombinant; tags: His (pET32a fusion); chain copies: 2; label: 5' biotin; blunt
[1] = biological target: T1, SORBI_3005G056300 (NAC TF) (UniProt C5Y5Q6 1-283)
T1 sequence: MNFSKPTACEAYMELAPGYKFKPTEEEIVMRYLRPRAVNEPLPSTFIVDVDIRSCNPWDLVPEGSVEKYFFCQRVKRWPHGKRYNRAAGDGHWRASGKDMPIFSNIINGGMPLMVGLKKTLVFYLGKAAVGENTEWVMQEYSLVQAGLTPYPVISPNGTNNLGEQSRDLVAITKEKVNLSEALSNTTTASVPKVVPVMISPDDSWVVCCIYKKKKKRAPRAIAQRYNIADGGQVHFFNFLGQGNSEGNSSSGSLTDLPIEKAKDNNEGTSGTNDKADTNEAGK

[2] = biological target: T2, SORBI_3003G105600 (NAC TF) (UniProt C5XF21 1-400)
T2 sequence: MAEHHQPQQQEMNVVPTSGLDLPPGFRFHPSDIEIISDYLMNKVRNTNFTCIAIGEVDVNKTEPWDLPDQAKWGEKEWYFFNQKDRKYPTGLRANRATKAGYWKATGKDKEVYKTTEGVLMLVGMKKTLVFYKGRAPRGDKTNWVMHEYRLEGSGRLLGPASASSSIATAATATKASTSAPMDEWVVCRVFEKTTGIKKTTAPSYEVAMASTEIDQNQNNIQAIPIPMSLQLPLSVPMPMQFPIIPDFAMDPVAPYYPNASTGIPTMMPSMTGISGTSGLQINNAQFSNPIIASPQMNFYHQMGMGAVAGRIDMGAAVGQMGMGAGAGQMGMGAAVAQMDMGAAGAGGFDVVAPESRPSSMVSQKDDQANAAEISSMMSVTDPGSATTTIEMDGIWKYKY

[3] = biological target: T3, SORBI_3009G086800 (NAC TF) (UniProt C5YV73 1-402)
T3 sequence: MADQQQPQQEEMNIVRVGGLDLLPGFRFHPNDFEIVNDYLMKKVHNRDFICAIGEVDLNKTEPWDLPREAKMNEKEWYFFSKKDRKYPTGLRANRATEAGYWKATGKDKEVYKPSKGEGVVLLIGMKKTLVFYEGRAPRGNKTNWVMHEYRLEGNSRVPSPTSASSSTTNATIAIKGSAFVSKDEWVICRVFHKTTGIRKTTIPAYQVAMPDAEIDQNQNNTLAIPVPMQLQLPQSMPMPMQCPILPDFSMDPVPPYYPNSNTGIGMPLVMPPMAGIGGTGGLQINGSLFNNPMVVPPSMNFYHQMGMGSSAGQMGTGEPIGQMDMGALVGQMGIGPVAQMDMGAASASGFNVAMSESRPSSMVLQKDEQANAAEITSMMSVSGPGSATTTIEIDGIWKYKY

Measured: binding result

B1: 4x CACGCAA repeat probe (dsDNA)
DNA 1: TCACGCAACACGCAACACGCAACACGCAAG
DNA 2: CTTGCGTGTTGCGTGTTGCGTGTTGCGTGA
binds: all assays above
